Measurements published in article PMC11890865.
Blank lines part the entries; values can stand above or below the substance they belong to.

Legend:
Assay in all cases: cryo-EM structure; ZorAB complex co-expressed from one operon and co-purified in LMNG; TBS (100 mM Tris, 150 mM NaCl, 1 mM EDTA, pH 8.0) plus 0.02% LMNG; Quantifoil Au grids, Titan Krios G4 at 300 kV
[1] = target: ZorA I from Shewanella sp. ANA-3 (Zorya type I) (Shewanella sp. strain ANA-3)
[2] = target: ZorB II from Sulfuricurvum kujiense DSM 16994 (Zorya type II) (Sulfuricurvum kujiense DSM 16994)
[3] = target: ZorA II from Sulfuricurvum kujiense DSM 16994 (Zorya type II) (Sulfuricurvum kujiense DSM 16994)
[4] = target: ZorB I from Shewanella sp. ANA-3 (Zorya type I) (Shewanella sp. strain ANA-3)

stoichiometry N [1]: 5
Substance: ZorA I from Shewanella sp. ANA-3 (Zorya type I) (natural protein)

stoichiometry N [2]: 2
Substance: ZorB II from Sulfuricurvum kujiense DSM 16994 (Zorya type II) (natural protein)

stoichiometry N [3]: 5
Substance: ZorA II from Sulfuricurvum kujiense DSM 16994 (Zorya type II) (natural protein)

stoichiometry N [4]: 2
Substance: ZorB I from Shewanella sp. ANA-3 (Zorya type I) (natural protein)
